Measured values reported in patent publication US20190336574A1 (TRUSTEES OF PRINCETON UNIVERSITY, published 2019).
Where no end group is shown, it is not given here. CFP = cyan fluorescent protein

Columns and labels:
[1] = biological target: His-SND1 (16-339), SN1/2 domains, wild type (human) (UniProt Q7KZF4); assay: GST titration pull-down: GST-MTDH (386-407) on glutathione resin, SND1 (SN1/2) at 10, 3, 1, 0.5, 0.25, 0.12 (the sheet prints mM, paragraph 254 says µM), SDS-PAGE, Coomassie blue
[2] = biological target: T1, endogenous human SND1 (human breast cancer cells, MDA-MB-231) (human, UniProt Q7KZF4 2-910); assay: competition in endogenous co-IP from MDA-MB-231 lysate (endogenous MTDH, m58, is the competitor); peptide at 50 uM; the sheet prints IP: MTDH, the legend says anti-SND1 [27B]
T1 construct: Endogenous protein in cell lysate; also called endogenous SND1 protein
T1 sequence: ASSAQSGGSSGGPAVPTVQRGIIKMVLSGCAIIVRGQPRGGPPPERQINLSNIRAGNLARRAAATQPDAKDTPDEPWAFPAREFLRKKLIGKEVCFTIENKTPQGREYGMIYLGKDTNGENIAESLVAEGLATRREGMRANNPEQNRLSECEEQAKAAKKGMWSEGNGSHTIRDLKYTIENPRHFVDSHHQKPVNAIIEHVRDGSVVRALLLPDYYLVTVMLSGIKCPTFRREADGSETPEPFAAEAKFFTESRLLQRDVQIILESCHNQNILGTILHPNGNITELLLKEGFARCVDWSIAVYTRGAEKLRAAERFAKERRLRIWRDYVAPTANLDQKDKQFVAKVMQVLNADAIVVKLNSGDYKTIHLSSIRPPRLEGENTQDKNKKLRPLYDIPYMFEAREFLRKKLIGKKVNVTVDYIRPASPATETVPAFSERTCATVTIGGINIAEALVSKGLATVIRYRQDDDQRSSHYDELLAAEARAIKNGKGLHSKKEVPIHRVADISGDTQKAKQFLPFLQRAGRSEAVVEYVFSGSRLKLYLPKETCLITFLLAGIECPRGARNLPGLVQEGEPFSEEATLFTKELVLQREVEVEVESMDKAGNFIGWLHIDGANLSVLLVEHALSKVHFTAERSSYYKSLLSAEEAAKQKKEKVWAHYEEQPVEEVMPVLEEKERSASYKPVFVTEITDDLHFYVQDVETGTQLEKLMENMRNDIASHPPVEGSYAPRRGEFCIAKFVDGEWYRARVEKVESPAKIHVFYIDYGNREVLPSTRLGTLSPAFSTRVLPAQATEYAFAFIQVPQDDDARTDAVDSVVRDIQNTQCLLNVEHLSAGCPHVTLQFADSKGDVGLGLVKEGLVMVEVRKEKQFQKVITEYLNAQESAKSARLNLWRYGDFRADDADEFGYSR
Protocol: Breast cancer cells MDA-MB231 were collected and subjected to IP assay. (FIG. 27A) Cell lysate was incubated with anti-SND1 antibody or IgG overnight followed by 2 hr incubation with Protein A/G beads to pull down endogenous SND1 protein. The beads were washed with lysis buffer and split into 5 fractions. Each fraction was eluted with buffer or indicated peptides for 30 min. The elution fractions and beads were collected for WB. (FIG. 27B) Cell lyaste was split into 5 fractions, and incubated with anti-SND1 antibody plus either buffer or indicated peptides. After 24 hr, the lysate was incubated with Protein A/G beads then the beads were washed in wash buffer.
The interaction interruption effects was confirmed by endogenous immunoprecipitation (IP) of a breast cancer cell line. Briefly, cell lysates from the breast cancer cell line MDA-MB-231 were collected and subjected to IP assay. FIG. 27A—Cell lysate was incubated with anti-SND1 antibody or IgG overnight followed by 2 hr incubation with Protein A/G beads to pull down endogenous SND1 protein. The beads was washed with lysis buffer and split into 5 fractions. Each fraction was eluted with buffer or indicated peptides for 30 min. The elution fractions and beads were collected for WB. FIG. 27B—Cell lyaste was split into 5 fractions, and incubated with anti-SND1 antibody plus either buffer or indicated peptides. […]

[3] = biological target: T2, HA-SND1, full-length human, wild type (human, UniProt Q7KZF4 1-910); assay: competition in co-IP from 293T cells with HA-SND1 and MYC-MTDH (m36 is the competitor); peptide at 50 uM; the sheet prints IP: MYC, the legend says anti-HA [26B, 26C, 26D]
T2 construct: Full-length, HA-tagged; Expressed in HEK293T cells, tested in lysate; also called HA-tagged SND1; WT HA-SND1
T2 sequence: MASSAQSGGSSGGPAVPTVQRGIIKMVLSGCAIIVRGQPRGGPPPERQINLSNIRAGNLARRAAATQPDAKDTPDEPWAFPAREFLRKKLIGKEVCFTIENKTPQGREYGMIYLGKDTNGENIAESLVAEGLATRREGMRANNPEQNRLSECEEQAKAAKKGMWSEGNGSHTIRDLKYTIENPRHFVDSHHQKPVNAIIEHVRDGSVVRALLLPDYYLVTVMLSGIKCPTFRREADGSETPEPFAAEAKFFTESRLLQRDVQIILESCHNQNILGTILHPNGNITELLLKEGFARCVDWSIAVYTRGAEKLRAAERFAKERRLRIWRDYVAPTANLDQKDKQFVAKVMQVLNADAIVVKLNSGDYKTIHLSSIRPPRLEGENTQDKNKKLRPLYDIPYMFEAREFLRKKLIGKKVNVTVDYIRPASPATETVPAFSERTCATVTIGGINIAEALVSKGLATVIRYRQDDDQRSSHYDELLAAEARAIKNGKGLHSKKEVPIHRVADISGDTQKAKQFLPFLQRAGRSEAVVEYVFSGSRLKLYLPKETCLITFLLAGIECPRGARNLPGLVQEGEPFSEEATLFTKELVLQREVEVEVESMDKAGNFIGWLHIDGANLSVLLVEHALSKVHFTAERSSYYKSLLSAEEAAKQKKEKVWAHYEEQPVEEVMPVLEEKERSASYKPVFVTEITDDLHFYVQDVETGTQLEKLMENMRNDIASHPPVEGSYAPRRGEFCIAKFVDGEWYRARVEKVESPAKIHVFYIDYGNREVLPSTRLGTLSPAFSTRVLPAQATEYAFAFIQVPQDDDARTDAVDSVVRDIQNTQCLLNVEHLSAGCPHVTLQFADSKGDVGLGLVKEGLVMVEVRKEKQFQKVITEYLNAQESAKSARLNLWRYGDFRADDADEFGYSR
Protocol: 293 T cells were co-transfected with HA-SND1 and MYC-MTDH. After 48 hours, the cells were collected and subject to immunoprecipitation assay. Cell lysate was incubated with anti-HA antibody or IgG overnight followed by a two hour incubation with Protein A/G beads to pull down HA-SND1 protein. The beads were washed with lysis buffer and split into five fractions.
The elution fractions and beads were collected for western blot. (FIGS. 26C and 26D) Cell lyaste was split into 6 fractions. One of the fractions was incubated with IgG and the rest were incubated with anti-HA antibody plus either buffer or indicated peptides. After 24 hours, the lysate was incubated with Protein A/G beads then the beads was washed followed by wash buffer. 50 uM of peptides was used in all the assays.

[4] = biological target: T3, His6-SND1ΔC (SND1 residues 1-339) (human, UniProt Q7KZF4 1-339); assay: schematic that sums up the GST pull-downs of His6-SND1ΔC
T3 construct: not shown: N-terminal His tag (His6, His8 or His) with TEV site, pQlink vector
T3 sequence: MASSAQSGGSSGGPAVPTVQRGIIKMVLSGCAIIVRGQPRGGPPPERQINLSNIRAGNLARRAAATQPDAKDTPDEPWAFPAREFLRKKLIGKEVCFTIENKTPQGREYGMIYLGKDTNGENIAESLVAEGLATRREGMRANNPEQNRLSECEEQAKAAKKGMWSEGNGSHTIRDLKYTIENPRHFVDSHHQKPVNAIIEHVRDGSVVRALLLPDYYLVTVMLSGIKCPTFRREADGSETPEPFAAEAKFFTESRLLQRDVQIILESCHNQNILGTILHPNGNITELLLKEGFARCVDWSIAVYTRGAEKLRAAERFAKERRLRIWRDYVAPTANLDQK
Description: FIGS. 7A-E represents determination of key regions and residues mediating the MTDH-SND1 interaction. (FIG. 7A) Schematics of MTDH fragments and mutants with indicated SND1-binding capability. + indicates binding and − indicates no binding based on results shown below. Two putative nuclear localization signals are residues 432-451 for NLS2 and residues 561-580 for NLS3. […] (FIG. 7B) Pulldown of His6-SND1ΔC by GST-tagged MTDH fragments with indicated boundaries. The bound proteins were examined by SDS-PAGE and visualized by Coomassie blue staining. […] For (FIG. 7B) and (FIG. 7C), 1/10 of the His6-SND1ΔC input was shown, and GST alone was used as a negative control. Representative results of 3 independent experiments are shown. (FIG. 7D, FIG. 7E) Lysates from HEK293T cells expressing the indicated ectopic human SND1, AGO2 or MTDH were immunoprecipitated with anti-Myc and immunoblotted with the indicated antibodies.
To further test whether the physical interaction with SND1 is critical for the function of MTDH, detailed analysis on the interaction of the proteins was conducted. SND1 contains four N-terminal Staphylococcal nuclease (SN) repeats and a C-terminal Tudor-SN hybrid domain. […] This allowed us to use the SND1ΔC fragment for the following in vitro binding studies.

[5] = biological target: TC-FLASH-SND1 (tetracysteine peptide fused to SND1 (16-339), labelled with FlAsH) (human) (UniProt Q7KZF4); assay: FRET, 0.2 µM CFP-MTDH titrated with TC-FLASH-SND1 (0.25-8 µM)

## PAE (397-399)→SQ
[1]
  Estimated Binding Affinity: 0.8 µM

## PNSDWNAPAEEWGNW (also called wild type MTDH peptide) [Peptide-wt (PNSDWNAPAEEWGNW)]
[2]
  binding result: binds
[3]
  binding result: binds

B1: GST-MTDH 406-470 (other)
fusion protein: DEERASLLKSQEPIPDDQKVSDDDKEKGEGALPTGKSKKKKKKKKKQGEDNSTAQDTEELEKEIR
[4]
  binding result: no binding

## {CFP}-SSADPNSDWNAPAEEWGNWVDE (peptide, not shown: large carriers, also: fused to CFP, whose letters are not given here) [CFP-MTDH fusion protein]
[5]
  Kd: 900 nM
